Results as given in patent publication US9073989B2, “Antibiotic comprising an antibody mimetic, its preparation methods and uses thereof” (PROTEIN DESIGN LAB, LTD, priority 2011, dated 2015).
≈ marks a conversion by molar mass, not a printed value. Where “and” joins values, the source holds several entries; their conditions need not be identical. Equal values may be shown once. Entries after “also recorded” stand apart in the source; their conditions may differ. Read-outs that look alike come from different tables or passages of the source.

Tests used:
[1] = tested on: Nesseria meningitidis (No. 29332); assay: Minimum inhibitory concentration by agar dilution method; format: cell-based; conditions: Embodiment 4, FIG. 6A, blood-chocolate medium with Columbia blood agar base
[2] = tested on: vancomycin-resistant Enterococcus faecalis (ATCC 700802); format: cell-based; conditions: MH medium
[3] = tested on: methicillin-resistant Staphylococcus aureus (ATCC BAA-42); assay: Minimum inhibitory concentration by agar dilution method; format: cell-based
[4] = tested on: multi-drug resistant Pseudomonas aeruginosa (isolated by West China Hospital, No. 13578); assay: as above; format: cell-based; conditions: for MIC in terms of molecular weight standard: Embodiment 3, converted from μg/ml; for MIC: MH medium
[5] = tested on: Mycobacterium tuberculosis (the standard strains H37RV); assay: In vivo protection of mice infected by Mycobacterium tuberculosis; design: species or system BalB/c mice; conditions: for weight of mice during experiment: during 5 weeks treatment; for lung by microscope (pathological section): 5 weeks treatment, magnification 200, FIG. 11
[6] = tested on: Nesseria meningitidis (No. 29332); assay: In vivo protection of mice infected by fatal dose of Nesseria meningitidis; conditions: 1.5 mg/kg intravenous 1 hour after intraperitoneal fatal dose; for survival rate in 8 days: 10 mice per group
Description: The mice were given an intraperitoneal injection of glucose solution of ferrous by 20 mg/kg, and 1 hour later an intraperitoneal injection of 0.5 ml of bacteria culture containing 1 share of Nesseria meningitidis cultrue solution (its CFU was 2.36×10^9/ml) and 1.5 share of 5% dry yeast solution. One hour later after being given intraperitoneal injection of fatal dose of the bacteria culture, the mice in experimental group were given an intravenous injection of the drugs and the mice in control group were given an intravenous injection of normal saline, all drugs were injected by 1.5 mg/kg), observation every 2 hours for 8 days, the death of mice as the positive results.

[7] = tested on: Nesseria meningitidis strain No. 29332; assay: Inhibiting effect on growth of Nesseria meningitidis in liquid culture (growth curve, optical density); format: cell-based; conditions: 5 and 10 μg/ml, rabbit blood-chocolate medium, 37° C., hourly A595 nm, FIG. 4
Description: The bacteria was strain No. 29332 Nesseria meningitidis (No. 29332 of bacteria Preservation Center in China, i.e. Center of Medical Devices of National Institute for the Control of Pharmaceutical & biological Products, SDA), two microlitres (μl) of bacteria solution (10^5 CFU/ml) was added in 10 ml rabbit blood-chocolate medium containing 50 mg beef extract, 100 mg tryptone, 50 mg NaCl, 30 mg K2HPO4 and 0.5-0.8 ml off fiber rabbit blood. Five groups were prepared. The first group was added 0.3 M NaCl+50 mM boric acid buffer fluid (i.e. blank preservative fluid for the novel antibiotic, by the same volume with the novel antibiotic solution in the group 4 and 5) as control. Penicillin sodium was added in the second group by 5 μg/ml. The novel antibiotic PMC-AM1 was added in the third group by 5 μg/ml. The novel antibiotic PMC-AM2 was added in the forth group by 5 μg/ml. The novel antibiotic PMC-AM1 was added in the fifth group by 10 μg/ml.
Reactant liquid of the above five groups were respectively put into 100 ml conical flask, and cultured at 37° C. by 200 rpm 100 μl culture solution was sampled per hour and added onto 96-pore ELISA plate for measuring bacteria grown cloudiness by spectrophotometer (A595 nm) color comparison. The bacteria-growth curve was drawn up to compare the bacteriostasis efficacy of novel antibiosis.

[8] = Embodiment 4, FIG. 6C, BM medium
[9] = Pseudomonas aeruginosa, Embodiment 3, agar dilution, 37° C. 18-24 hours, FIG. 5, read-out: MIC
[10] = Embodiment 3, agar dilution, 37° C. 18-24 hours, FIG. 5
[11] = Embodiment 5, FIG. 7B, MH medium

## CC1(C)S[C@@H]2[C@H](NC(=O)[C@H](N)c3ccccc3)C(=O)N2[C@H]1C(=O)O [ampicillin, reference compound]
[1]
  MIC: 1.35 nmol
[2]; Embodiment 4, FIG. 6B
  MIC: 10.78 nmol
[3]; [8]
  MIC: 21.55 nmol

## CC(C)(O/N=C(\C(=O)N[C@@H]1C(=O)N2C(C(=O)[O-])=C(C[n+]3ccccc3)CS[C@H]12)c1csc(N)n1)C(=O)O [ceftazidime]
[4]
  MIC in terms of molecular weight standard: 29.3 nmol
[4]; Embodiment 4, FIG. 6D
  MIC: 29.3 nmol
[4]; [9]
  MIC: 16 µg/mL (≈ 29.3 µM)
[1]
  MIC: 3.02 nmol

## NNC(=O)c1ccncc1 [isoniazid, reference compound]
[5]
  weight of mice during experiment: rise

## C[C@H]1COc2c(N3CCN(C)CC3)c(F)cc3c(=O)c(C(=O)O)cn1c23 [levofloxacin]
[4]
  MIC in terms of molecular weight standard: 43.2 nmol
[4]; Embodiment 4, FIG. 6D
  MIC: 43.2 nmol
[4]; [9]
  MIC: 8 µg/mL (≈ 22.1 µM)

## Cc1onc(-c2ccccc2)c1C(=O)N[C@@H]1C(=O)N2[C@@H]1SC(C)(C)[C@@H]2C(=O)O [oxacillin, reference compound]
[3]; [8]
  MIC: 14.1 nmol

## CN[C@H](CC(C)C)C(=O)N[C@H]1C(=O)N[C@@H](CC(N)=O)C(=O)N[C@H]2C(=O)N[C@H]3C(=O)N[C@H](C(=O)N[C@H](C(=O)O)c4cc(O)cc(O)c4-c4cc3ccc4O)[C@H](O)c3ccc(c(Cl)c3)Oc3cc2cc(c3O[C@@H]2O[C@H](CO)[C@@H](O)[C@H](O)[C@H]2O[C@H]2C[C@](C)(N)[C@H](O)[C@H](C)O2)Oc2ccc(cc2Cl)[C@H]1O [vancomycin, reference compound]
[2]; Embodiment 4, FIG. 6B
  MIC: 21.54 nmol

## gentamicin
[4]; [10]
  MIC: greater than 512 μg/ml
[4]
  MIC in terms of molecular weight standard: greater than 890 nMol
[4]; Embodiment 4, FIG. 6D
  MIC: > 889.4 nmol
[6]
  survival rate in 8 days: 50%

## penicillin
[6]
  death of mice (survival outcome in words): all died in two days

B1: PMC-AM1: Fusion of antibody mimetic AM1 (VHCDR1-VHFR2-VLCDR3, Seq ID No.2) to C-terminus of Colicin Ia; Seq ID No.6 (protein)
chain: SDPVRITNPGAESLGYDSDGHEIMAVDIYVNPPRVDVFHGTPPAWSSFGNKTIWGGNEWVDDSPTRSDIEKRDKEITAYKNTLSAQQKENENKRTEAGKRLSAAIAAREKDENTLKTLRAGNADAADITRQEFRLLQAELREYGFRTEIAGYDALRLHTESRMLFADADSLRISPREARSLIEQAEKRQKDAQNADKKAADMLAEYERRKGILDTRLSELEKNGGAALAVLDAQQARLLGQQTRNDRAISEARNKLSSVTESLNTARNALTRAEQQLTQQKNTPDGKTIVSPEKFPGRSSTNHSIVVSGDPRFAGTIKITTSAVIDNRANLNYLLSHSGLDYKRNILNDRNPVVTEDVEGDKKIYNAEVAEWDKLRQRLLDARNKITSAESAVNSARNNLSARTNEQKHANDALNALLKEKENIRNQLSGINQKIAEEKRKQDELKATKDAINFTTEFLKSVSEKYGAKAEQLAREMAGQAKGKKIRNVEEALKTYEKYRADINKKINAKDRAAIAAALESVKLSDISSNLNRFSRGLGYAGKFTSLADWITEFGKAVRTENWRPLFVKTETIIAGNAATALVALVFSILTGSALGIIGYGLLMAVTGALIDESLVEKANKFWGISYWLHWIKQRPGQGLWIGSQSTHVPRT
modifications: The amino acid sequence of antibiotic PMC-AM1
[7]
  bacteria growth (bacteriostasis efficacy, growth curve): can only be restrained by PMC-AM1
[4]; [10]
  MIC: 8 µg/mL
[4]
  MIC in terms of molecular weight standard: 0.23 nmol
[4]; Embodiment 3, ratio of molar MICs
  antibacterial effect stronger than ceftazidime, levofloxacin and gentamicin: 127 to 3800 times and 127-3800 times
[4]; Embodiment 4, FIG. 6D
  MIC: 0.91 nmol
[4]; Embodiment 5, FIG. 7C
  MIC: 0.23 nmol
[1]
  MIC: 0.11 nmol
[2]; Embodiment 4, FIG. 6B
  MIC: 0.23 nmol
[2]; Embodiment 5, FIG. 7A
  MIC: 0.23 nmol
[3]; [8]
  MIC: 0.06 nmol
[3]; [11]
  MIC: 0.06 nmol
[6]
  survival rate in 8 days: 90%
[5]
  lung by microscope (pathological section): intact but had a little of cellular infiltration in parts
  weight of mice during experiment: rise
[5]; mouse, in vivo, ip
  observation of the mice's lung (TB nodules, necrosis): intact, and had no nodules and necrosis of tuberculosis; also recorded: no TB nodules and necrosis

B2: Colicin Ia (protein, UniProt P06716 1-626, looked up)
Colicin-Ia: MSDPVRITNPGAESLGYDSDGHEIMAVDIYVNPPRVDVFHGTPPAWSSFGNKTIWGGNEWVDDSPTRSDIEKRDKEITAYKNTLSAQQKENENKRTEAGKRLSAAIAAREKDENTLKTLRAGNADAADITRQEFRLLQAELREYGFRTEIAGYDALRLHTESRMLFADADSLRISPREARSLIEQAEKRQKDAQNADKKAADMLAEYERRKGILDTRLSELEKNGGAALAVLDAQQARLLGQQTRNDRAISEARNKLSSVTESLNTARNALTRAEQQLTQQKNTPDGKTIVSPEKFPGRSSTNHSIVVSGDPRFAGTIKITTSAVIDNRANLNYLLSHSGLDYKRNILNDRNPVVTEDVEGDKKIYNAEVAEWDKLRQRLLDARNKITSAESAVNSARNNLSARTNEQKHANDALNALLKEKENIRNQLSGINQKIAEEKRKQDELKATKDAINFTTEFLKSVSEKYGAKAEQLAREMAGQAKGKKIRNVEEALKTYEKYRADINKKINAKDRAAIAAALESVKLSDISSNLNRFSRGLGYAGKFTSLADWITEFGKAVRTENWRPLFVKTETIIAGNAATALVALVFSILTGSALGIIGYGLLMAVTGALIDESLVEKANKFWGI
notes: Wild-type bacterial toxin secreted by E. coli forming ion channels
[4]; Embodiment 5, FIG. 7C
  MIC: 0.91 nmol
[2]; Embodiment 5, FIG. 7A
  MIC: 0.91 nmol
[3]; [11]
  MIC: 0.23 nmol
[5]
  lung by microscope (pathological section): the injury was little slighter than the control mouse's
[5]; mouse, in vivo
  mice died before sacrifice (from the forth week): 1 mouse
